Data from the RNAGym collection of RNA variant scans (doi:10.1073/pnas.2313332121).
This sample holds only a part of the variants without activity.

B1: TPR 5TU (parent)
chain: GGAUCUUCUCGAUCUAACAAAAAAGACAAAUCUGCCACAAAGCUUGAGAGCAUCUUCGGAUGCAGAGGCGGCAGCCUUCGGUGGCGCGAUAGCGCCAACGUUCUCAACUAUGACACGCAAAACGCGUGCUCCGUUGAAUGGAGUUUAUCAUG

Variants of: B1
Assay: polymerase ribozyme fitness, log enrichment relative to wild type (log ratio); higher = more active; in vitro selection for triplet polymerase activity
In short: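 Libraries of mutants in each subunit of a heterodimeric triplet polymerase ribozyme were generated by PCR and transcribed. In triplicate, each went through one in vitro selection round: annealing with biotinylated primer, partner subunit and triplets; frozen incubation at −7 °C; gel excision of extended constructs; streptavidin-bead capture; RT-PCR. Fitness, taken from Illumina sequencing of input and output libraries, is the logarithm of a genotype's enrichment over wild-type enrichment, averaged across replicates with inverse-variance weights. The logarithm is base 2, and genotypes needed ≥10 input reads and ≥1 read per output to be kept.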

Variant | polymerase ribozyme fitness (log ratio)
C10U A64C A89C G117C A137C | ≤ -4.2
C76A C118A | -0.944
C57A U78G A97G G117A A122G | ≤ -4.2
A21U C32A C51U A73G U134G | ≤ -4.2
U104G U134G G143A | -3.69
G58A G80U G84A G88A | ≤ -4.2
C35U C51U G67A G92A C131G G133A U145G | ≤ -4.2
C8A C43U G46A A73G C85U U134G U151A | ≤ -4.2
A29C G62U G80C C118A | ≤ -4.2
G46A C129U | -3.61
C114A | -2.72
C14G C27U G48A C57A A60U G88C A106U | ≤ -4.2
A41G U53G | -0.77
U15C A21C U61A G62C C95A U104A A138U | ≤ -4.2
U102G G124A | -2.85
U33G A47C U56A A73G G83U C99A | -4.05
A17C A40G G50C C57U C108U G133C | ≤ -4.2
G48C A73U U135G | ≤ -4.2
C57A A89U A98G | 0.118
U61A A73G G80U | ≤ -4.2
A20C U33A C43U G88U G92A A115C G126A C132U A147C | ≤ -4.2
A49C G81A G112A C114U G128A G133A | ≤ -4.2
G67C C93G C99G A137U U146A | ≤ -4.2
U55A G140A | -4

Variant | polymerase ribozyme fitness (log ratio)
U82G C93A | -2.46
C116G A119U | 0.403
G50U C99A | -1.59
C54U U56A G86A U102A C116A | -2.55
C75U C93G A121U C123U | -2.27
A21U U78C G86C U148A | ≤ -4.2
U61A U77A C95U A97C U139A A150G | ≤ -4.2
A52G C93G C96U U104C A150G | ≤ -4.2
U55A A119G U139G | 0.219
C57A C76G A113G G126A C129A U134G | ≤ -4.2
U45A G84A | -3.44
C14A A24U U90A | ≤ -4.2
C14A G62A C85A G141A | -3.57
C96A G126C | -0.953
A119G | -0.045
A37G A73U G94A A97C G124A | ≤ -4.2
A40C C85U | -0.549
A41C G94C | -1.8
A29U G68A G83A C103G | ≤ -4.2
G68A C75U C85G G136U U148A | ≤ -4.2
C79G C87U G100U | -2.91
A17U U55G G68U G84A C103A G152A | ≤ -4.2
C76G G84U U145C | ≤ -4.2
C18G U31A A120G G128U A137G | -4.17

Variant | polymerase ribozyme fitness (log ratio)
G62A A64U C69U C76U G84A C105G C116G | ≤ -4.2
A30C C54U C69A G70A A137C | ≤ -4.2
G81A C87U A91U G112U G143A | ≤ -4.2
U44G G48A G84A | ≤ -4.2
A49C U53A A106G | ≤ -4.2
G83A A97U | 0.538
C54G G94U C123U G133C | -2.38
G59A U82C U134A | -2.59
A20C G46A C69G G94A | -2.22
C27G U44G U77G G83C A89U | ≤ -4.2
A19C C27A A47C G58A G59A A91G C123A | ≤ -4.2
U6A A22C G50A U61G C79U C85A G143U A147C | ≤ -4.2
C10U A16G G84U G140U | ≤ -4.2
C75U A122U | -0.205
C5G C35U A52C G59C A106G C108A C114U A119U A122U G133U | ≤ -4.2
A12U A20U G81A C87A C96A U102C C125U | ≤ -4.2
C5U U45A G50U G86C C96U | ≤ -4.2
C51U A89G A97G G143U | -3.43
A19U U45G | -0.38
U77G C93U G100U | ≤ -4.2
A23U G94A | -3.99
U13C C14U U77G G84U U145G U148A | ≤ -4.2
A24U C57U A89U G92C U127C C131G | ≤ -4.2
C95A C99A C123G | -1.33

Variant | polymerase ribozyme fitness (log ratio)
U15C A20G A97G G140A | -3.64
A30G G48A G80U G88U U109C | ≤ -4.2
A16C U82G | -1.06
A20G A73U G83A | -2.36
C36U A52U C75G G88C C105A C114G A115G | ≤ -4.2
G11U A26U U61G G84U C85A C96A U139A | ≤ -4.2
A22C C54U G84U U104G C114G G133U | ≤ -4.2
C85A C103G A147U | -2.48
A23G G62A A73U C76G G88A C105U A106G | ≤ -4.2
A3U C14G G50C C85U G88A | ≤ -4.2
G92A U104G A110G | -3.8
A22G A91U C95U U109C A137U | ≤ -4.2
C27U G92C U146C U151G | ≤ -4.2
G59C A89U C96G A107G | ≤ -4.2
A91G U145G | -3.96
C35U C51U C85A | -3.1
U55A U82C | -0.191
C27U C32G C36U C87G | ≤ -4.2
G126A | 0.682
C5U C8U G58A A73G C114U A120G | -3.02
A49C A52G C85U U101G U127G U144G | ≤ -4.2
A20C A49U A60C | -3.14
A41U C54A C79U G88C U148C | ≤ -4.2
A41U C103G G128U | ≤ -4.2

Variant | polymerase ribozyme fitness (log ratio)
A60C C85A C125G U144G | -2.67
G48A G67A U77C A97U U145G A150U | ≤ -4.2
G83U A120U A137C | -3.31
G48A C85G A98U C99U | -3.36
A30C C43U A49C C85G C108G | ≤ -4.2
C57G G94C A98G C105U | -0.386
C5U U15A A17G C18U G42A U53A U55A A60C G68C C79U A91C A97G | ≤ -4.2
A19U G34U C51U U53C G81A G86U G92A C96U A98G | ≤ -4.2
C54A G58C | -1.45
A40U G62U C72G G80C U82C A138U | ≤ -4.2
G11U C76A G83U C85A A137G | ≤ -4.2
A37C G83U C93G A97G G100U | ≤ -4.2
G42C C95A A142C | ≤ -4.2
C35A A66G C87U U127C | ≤ -4.2
G11U A29C A89C C125U | -4.16
A16U U44A G71C C96G A106U U127C G133U G141C U148C | ≤ -4.2
U61G A64C C75G C93U | ≤ -4.2
C75U A91C A119G G136U | ≤ -4.2
C79U G84A | -3.04
C27A C63A G80C C85G A119C U144A | ≤ -4.2
C18U A41G C51U A115C G140U | -3.82
U33G U55C C76U G86U C105A C116U | ≤ -4.2
C38U U55G A119G | -0.675
C63A G92U C116U | -3.98

Variant | polymerase ribozyme fitness (log ratio)
G34C U55G G65A | ≤ -4.2
A16U A150G | -2.95
A47C G84A | -0.485
A21U C96U A113U | -2.6
G68U C85G | ≤ -4.2
U77G G117U | ≤ -4.2
C10G A73U G128U | ≤ -4.2
A3G A12C G62U G70C C79G G81A G84A A147C | ≤ -4.2
C76U A91U | -4.13
A41C C93G | -3.5
C27A G117A | -3.86
A40G C63G C85U U145A | -2.16
C51U G62A U139G | -0.262
A41U A49G A52C G84A C103G A115U | ≤ -4.2
U61G C69G U82A C95A A122U U148C | ≤ -4.2
A91C U109G G140U | ≤ -4.2
G59C C95A | -0.188
U7C C57G A98G | -3.3
G58C A97G A98U U145C | -0.616
G68U U101C | -4.07
G81U | -0.702
A19G U90G | ≤ -4.2
A39U A60U G81A C85A C93U | ≤ -4.2
A21G A41G C93A C132A | -3.75

Variant | polymerase ribozyme fitness (log ratio)
A40C U134A | -1.77
C69G C103G C116U | -2.03
A28G U53G C85A U104G A106G A138U A147G | ≤ -4.2
A16U G42A U53A C85U C96G A120C | ≤ -4.2
C27G U56A | -3.69
G83C C118U | -1.34
C8A A26U A37C G59A C93U | ≤ -4.2
U33C C43U G126U | ≤ -4.2
A16U G70C G81U A89G | ≤ -4.2
G70A C87U C96A C118G A147C | ≤ -4.2
A60G C123U G124A C131A | -2.39
A19U U55G G86U | -1.7
U13G U55A G94A G100A G140U | -4.11
C10G A12G A120U U135C | ≤ -4.2
U33G G46C C95U C99A A107G G133U | ≤ -4.2
C5U A28U A40U C57U G83C A89G | ≤ -4.2
C14G A24U | -3.18
A60G G126A | 1.03
U53A A97C A113G | -3.54
A40C G50A C72U U78C C87U | ≤ -4.2
C43G G94A | -3.81
A17G A19U C93U U102C G136A U148A | ≤ -4.2
C38G G80C C99G C116U | -0.78
